How the values were obtained:
ヒトCLDN1タンパク質 = molecular target: T1, ヒトCLDN1タンパク質 (human, UniProt O95832 1-211); experiment: immunohistochemistry on paraffin sections of HEK293T cells expressing the CLDN
T1 construct: whole, on cells; Expressed with Venus in HEK293T cells; formalin-fixed paraffin sections of cell pellets
T1 sequence (looked up): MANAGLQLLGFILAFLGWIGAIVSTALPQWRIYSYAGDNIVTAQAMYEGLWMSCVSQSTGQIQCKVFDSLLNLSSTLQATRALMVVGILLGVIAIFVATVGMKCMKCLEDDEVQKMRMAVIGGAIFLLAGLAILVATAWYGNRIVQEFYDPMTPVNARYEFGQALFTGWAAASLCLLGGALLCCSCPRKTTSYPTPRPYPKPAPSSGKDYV

ヒトCLDN6タンパク質 = molecular target: T2, ヒトCLDN6タンパク質 (human, UniProt P56747 1-220); experiment: as above
T2 construct: whole, on cells; Expressed with Venus in HEK293T cells; formalin-fixed paraffin sections of cell pellets
T2 sequence (looked up): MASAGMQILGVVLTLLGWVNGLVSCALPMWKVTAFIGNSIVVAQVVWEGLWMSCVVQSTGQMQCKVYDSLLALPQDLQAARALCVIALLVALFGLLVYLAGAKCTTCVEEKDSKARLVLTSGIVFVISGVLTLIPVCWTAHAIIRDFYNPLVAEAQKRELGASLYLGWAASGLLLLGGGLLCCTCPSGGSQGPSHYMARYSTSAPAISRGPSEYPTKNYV

ヒトCLDN4タンパク質 = molecular target: T3, ヒトCLDN4タンパク質 (human, UniProt O14493 1-209); experiment: as above
T3 construct: whole, on cells; Expressed with Venus in HEK293T cells; formalin-fixed paraffin sections of cell pellets
T3 sequence (looked up): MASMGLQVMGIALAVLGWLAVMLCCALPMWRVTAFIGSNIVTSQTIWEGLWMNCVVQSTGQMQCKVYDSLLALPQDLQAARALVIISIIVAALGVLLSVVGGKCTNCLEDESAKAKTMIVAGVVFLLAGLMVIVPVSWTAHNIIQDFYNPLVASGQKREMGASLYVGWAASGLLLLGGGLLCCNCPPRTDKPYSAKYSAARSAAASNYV

ヒトCLDN9タンパク質 = molecular target: T4, ヒトCLDN9タンパク質 (human, UniProt O95484 1-217); experiment: as above
T4 construct: whole, on cells; Expressed with Venus in HEK293T cells; formalin-fixed paraffin sections of cell pellets; also called CLDN9
T4 sequence (looked up): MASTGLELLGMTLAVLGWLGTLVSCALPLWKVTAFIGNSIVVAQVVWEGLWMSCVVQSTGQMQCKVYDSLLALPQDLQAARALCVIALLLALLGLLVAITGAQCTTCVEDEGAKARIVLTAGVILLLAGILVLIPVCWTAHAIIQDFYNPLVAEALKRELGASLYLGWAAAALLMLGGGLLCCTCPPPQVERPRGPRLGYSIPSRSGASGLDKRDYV

ヒトCLDN5タンパク質 = molecular target: T5, ヒトCLDN5タンパク質 (human, UniProt O00501 1-218); experiment: as above
T5 construct: whole, on cells; Expressed with Venus in HEK293T cells; formalin-fixed paraffin sections of cell pellets
T5 sequence (looked up): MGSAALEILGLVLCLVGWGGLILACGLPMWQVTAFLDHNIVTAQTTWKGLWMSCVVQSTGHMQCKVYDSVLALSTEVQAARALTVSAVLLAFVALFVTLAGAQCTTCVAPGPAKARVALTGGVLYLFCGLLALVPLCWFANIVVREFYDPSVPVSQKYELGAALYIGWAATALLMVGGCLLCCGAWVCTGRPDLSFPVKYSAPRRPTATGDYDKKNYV

ヒトCLDN15タンパク質 = molecular target: T6, ヒトCLDN15タンパク質 (human, UniProt P56746 1-228); experiment: immunohistochemistry on paraffin sections of CLDN-expressing cell pellets and of patients' malignant pleural mesothelioma tissue
T6 construct: Expressed in HEK293T cells from a plasmid that also expresses Venus; 228 residues, four-pass membrane protein; also called クローディン15; WT
T6 sequence: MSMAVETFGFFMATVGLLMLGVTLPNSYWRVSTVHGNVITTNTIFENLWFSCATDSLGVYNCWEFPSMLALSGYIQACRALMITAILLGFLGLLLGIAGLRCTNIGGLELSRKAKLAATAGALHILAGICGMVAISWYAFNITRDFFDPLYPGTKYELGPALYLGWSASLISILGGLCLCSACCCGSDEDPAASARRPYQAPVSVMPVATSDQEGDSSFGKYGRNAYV

B1: ラット抗ヒトCLDN15モノクローナル抗体クローン2C11 (antibody, V domains shown)
VH: AVQLVESGGGLVQPKESLKISCAASGFTFSNAAMYWVRQAPGKGLEWVARIRTKPNNYATYYADSVKGRFTISRDDSKSMVYLQMDNLKTEDSAMYYCTAPAYYFGYWGQGVMVTVSS
VL: DVVLTQTPPTLSATIGQSVSISCRSSQSLLHSNGNTYLHWLLQRPGQSPQLLIYLVSRLESGVPNRFSGSGSGTDFTLKISGVEAEDLGVYYCVQGTHAPWTFGGGTKLELK
notes: Rat monoclonal antibody from a hybridoma, used as culture supernatant and detected with anti-rat IgG-HRP; also called 2C11抗体; 抗CLDN15モノクローナル抗体(2C11)
binding result (ヒトCLDN1タンパク質): no binding | binding result (ヒトCLDN6タンパク質): no binding | binding result (ヒトCLDN4タンパク質): no binding | binding result (ヒトCLDN9タンパク質): no binding | binding result (ヒトCLDN5タンパク質): no binding | binding result (ヒトCLDN15タンパク質): binds

Reference: patent publication JP2021042960A (dated 2021)
